Here are results for four molecules from patent publication US20240100174A1, “PROTEIN-PEG INTERACTIONS THAT REDIRECT THE THERMAL UNFOLDING PATHWAY OF PEGYLATED HUMAN GALECTIN-3C” (UNIVERSITY OF FLORIDA RESEARCH FOUNDATION, INCORPORATED, priority 2022, published 2024).

A word on the Kd: it is the concentration at which binding is half-saturated.

A short description of series [1]: Variable temperature circular dichroism (CD) thermal unfolding. The class given is physicochemical. The conditions noted are these: for Tm1 ± StDev: normalized CD at 220 nm vs. temperature, 3 replicates averaged, ramp 30-90° C. at 1° C. per minute; for thermal unfolding behaviour / formation of unfolding intermediate: result in words, for polymer conjugates the selected SEC fractions; for Tm2 ± StDev: second unfolding transition, cells printed as ND with footnote b. The procedure:
CD spectroscopic data were recorded with an Applied Photophysics™ Chirascan spectrophotometer equipped with a Quantum Northwestern Peltier temperature control device and operating with Chirascan v4.7.0 and Pro-Data™ Viewer software. Samples were prepared in PBS at final concentrations of 10 μM. All samples were contained in 2 mm tapered quartz cuvettes, and a temperature probe was inserted through the cuvette cap to monitor the sample temperature in real time. The following parameters were used for constant temperature experiments: CD signal measured in millidegrees, bandwidth of 1.0 nm, wavelength scan from 200-280 nm, step size of 2.0 nm. Spectra were background subtracted against the sample buffer. For thermal unfolding experiments, a linear thermal ramp was applied from 30° C. to 90° C. at 1° C. per minute. All spectra were measured in triplicate, and data were normalized to account for slight differences in protein concentration.
To calculate melting temperatures of unconjugated Gal3C, Gal3C[T243C], and Gal3C[T243C] variants containing lysine replacements, the normalized data were fit to a Boltzmann sigmoidal function in Origin v8.5. For the data fitting, no parameters were fixed, and the ‘x’ parameter defined as the center of the data was interpreted as the melting temperature (Tm). Variable temperature CD data of PEGylated Gal3C[T243C] and Gal3C[T243C] variants were fit with a sum of two Boltzmann sigmoidal functions, as shown below:
where ‘A1’, ‘A2’, and ‘A3’ represent three plateaus of the CD signal, ‘dx1’ and ‘dx2’ are the change in x between the plateaus for each melting transition, and ‘x1’ and ‘x2’ are the two Tm values extracted by the fit for the first and second unfolding transitions, respectively. Because the third plateau, A3, occurred at temperatures higher than the experimentally accessible range, this value was estimated. A single wavelength for plotting on the y-axis was selected by calculating the wavelength of greatest CD signal change for each PEGylated construct.
To record a CD spectrum of Gal3C[T243C] with free PEG, a stock solution of methoxy-PEG (mPEG) in 1×PBS was added immediately before the experiment to a solution containing protein (20 μM, 1 ×PBS) to a final concentration of 22 μM mPEG. All thermal melt parameters were the same as listed in the above described experiments.
CD spectroscopic data were recorded with an Applied Photophysics Chirascan spectrophotometer equipped with a Quantum Northwestern Peltier temperature control device and operating with Chirascan v4.7.0 and Pro-Data Viewer software, following procedures used in our previous study.^4 Spectra were background subtracted against the sample buffer. For thermal unfolding experiments, a linear thermal ramp was applied from 30° C. to 90° C. at 1° C. per minute with samples concentrated to 10 μM in PBS. All spectra were measured in triplicate, and data were normalized to account for slight differences in protein concentration.
Full wavelength (200-280 nm) CD spectra for each construct (FIG. 43) were used to calculate a wavelength of greatest change (222 or 224 nm) to create single wavelength CD vs. temperature plots (FIG. 30H-J and FIG. 31F-G). The single wavelength CD signal vs. temperature plot of Gal3C[T243C] used data acquired at 220 nm, which was the wavelength of greatest change for the unmodified protein. To calculate melting temperatures, the normalized data were fit to a Boltzmann sigmoidal function in Origin v8.5. For the data fitting, no parameters were fixed, and the ‘x’ parameter defined as the center of the data was interpreted as the melting temperature (Tm).

In another series the test system is breast cancer. To be noted: breast cancer animal models; cited from earlier work.
A short description of series [2]: Equilibrium binding of LacNac, intrinsic tryptophan fluorescence. The conditions noted are these: ligand LacNac; average ± standard deviation of 3 replicated experiments; PBS; read-out: Kd (equilibrium binding constant). As for the experimental part: (§1) Equilibrium binding data were recorded using a protocol adapted from a previous procedure from Restuccia, et al (38). Intrinsic tryptophan fluorescence was monitored using a Cary Eclipse™ Fluorescence Spectrophotometer (Agilent) operating with Cary Eclipse™ WinFLR software version 1.2 in ‘Scan Mode’. The instrument method parameters were as follows: excitation wavelength was 280 nm, the acquisition range was from 290 nm to 440 nm and the photomultiplier tube sensitivity was set to ‘medium’. Samples were prepared at final concentrations of 1 μM for Gal3C[T243C] or 5 μM Gal3C[T243C]-PEG in 800 ∥L, in PBS for each titration. Samples were pipetted into 0.7×0.7 cm quartz cuvettes with a micro stir bar. Each new experiment was first zeroed against PBS to remove the small background signal from the buffer. […]
The binding affinity and specificity of Gal3C[T243C]-PEG was compared with Gal3C[T243C] and Gal3C (see FIG. 1C, FIG. 9 and FIG. 10) via an inherent tryptophan fluorescence assay optimized to ensure equilibrium binding conditions. Binding of lactose or LacNac quenches the fluorescence of W181, located adjacent to the bound sugar in the crystal structure of Gal3C, thus permitting direct measurement of ligand Kd values. […]

A short description of series [3]: Equilibrium binding of lactose, intrinsic tryptophan fluorescence. The conditions noted are these: ligand lactose; average ± standard deviation of 3 replicated experiments; PBS; read-out: Kd (equilibrium binding constant). The procedure: as §1
The binding affinity and specificity of Gal3C[T243C]-PEG was compared with Gal3C[T243C] and Gal3C (see FIG. 1C, FIG. 9 and FIG. 10) via an inherent tryptophan fluorescence assay optimized to ensure equilibrium binding conditions. Binding of lactose or LacNac quenches the fluorescence of W181, located adjacent to the bound sugar in the crystal structure of Gal3C, thus permitting direct measurement of ligand Kd values.

On to “Gal3C[T243C, K139I]: Gal3C[T243C] variant with lysine K139 replaced by isoleucine”, for which, in series [1], the “Tm1 ± StDev” value came to 52.5 ± 0.4 °C, the “thermal unfolding behaviour / formation of unfolding intermediate” value (“thermal unfolding behaviour / formation” for short) is on record as “cooperative one step unfolding” and the “Tm2 ± StDev” value is listed as “ND^b (Higher than detectable by instrument (>90° C.))”. Besides, the “Tm1 ± StDev” value in series [1] (listed as Gal3C[T243C,K139I]) worked out at 52.5 °C. Besides, the “Tm / Tm1” value in series [1] (values of Summary of Results, Tm for unconjugated protein, Tm1 for PEG conjugate) turned out to be 52.7 °C.

B1: Gal3C[T243C, K139I, K196I]: Gal3C[T243C] variant with lysines K139 and K196 replaced by isoleucines (protein)
chain: MADNFSLHDALSGSGNPNPQGWPGAWGNQPAGAGGYPGASYPGAYPGQAPPGAYPGQAPPGAYPGAPGAYPGAPAPGVYPGPPSGPGAYPSSGQPSATGAYPATGPYGAPAGPLIVPYNLPLPGGVVPRMLITILGTVIPNANRIALDFQRGNDVAFHFNPRFNENNRRVIVCNTKLDNNWGREERQSVFPFESGIPFKIQVLVEPDHFKVAVNDAHLLQYNHRVKKLNEISKLGISGDIDLCSASYTMI
Turning to B1, in series [1], the “Tm1 ± StDev” value was 60.5 ± 0.6 °C, the “thermal unfolding behaviour / formation” value is on record as “cooperative one step unfolding” and the “Tm2 ± StDev” value is on record as “ND^b (Higher than detectable by instrument (>90° C.))”. Also, in series [1] (listed as Gal3C[T243C,K139I,K196I]), the “Tm1 ± StDev” value was determined as 60.5 °C.

B2: Gal3C[T243C,K139I,K196I,K199I]: Gal3C[T243C] variant with lysines K139, K196 and K199 replaced by isoleucines (protein)
chain: MADNFSLHDALSGSGNPNPQGWPGAWGNQPAGAGGYPGASYPGAYPGQAPPGAYPGQAPPGAYPGAPGAYPGAPAPGVYPGPPSGPGAYPSSGQPSATGAYPATGPYGAPAGPLIVPYNLPLPGGVVPRMLITILGTVIPNANRIALDFQRGNDVAFHFNPRFNENNRRVIVCNTKLDNNWGREERQSVFPFESGIPFIIQVLVEPDHFKVAVNDAHLLQYNHRVKKLNEISKLGISGDIDLCSASYTMI
B2: the “thermal unfolding behaviour / formation” value in series [1] was “significantly altered unfolding profile”.

B3: Gal3C: carbohydrate recognition domain of human galectin-3, residues A111 to E252; SEQ ID NO: 13 (protein)
chain: MAGPLIVPYNLPLPGGVVPRMLITILGTVKPNANRIALDFQRGNDVAFHFNPRFNENNRRVIVCNTKLDNNWGREERQSVFPFESGKPFKIQVLVEPDHFKVAVNDAHLLQYNHRVKKLNEISKLGISGDIDLTSASYTMILEHHHHHH
B3: the tumor growth result with breast cancer is recorded as “inhibiting tumor growth”. Further, the results for the Kd in series [2] and in series [3] were 231 ± 32.3 µM and 529 ± 125 µM, respectively. The “fitted melting temperature (Tm)” value in series [1] (FIG. 13, normalized CD intensity at 220 nm, Boltzmann sigmoidal fit) was 58.4 °C. Further, the “Tm1 ± StDev” value in series [1] was found to be 58.8 ± 0.6 °C.
